Reference: US8722052B2, “Vaccinia virus protein A46 peptide and use thereof” (priority 2008, dated 2014)

Assays:
[1] = target: T1, TLR9 (Mus musculus, UniProt Q9EQU3); experiment: CpG-induced MIP-2 production in RAW264.7 cells, ELISA; type: cell-based, murine; settings: peptide 5 or 20 μM 1 h before 1 μg/ml CpG, supernatant 24 h
T1 construct: using the murine macrophage cell line RAW264.7; endogenous in cells; host or cells: RAW264.7
T1 sequence (Q9EQU3 26-1032): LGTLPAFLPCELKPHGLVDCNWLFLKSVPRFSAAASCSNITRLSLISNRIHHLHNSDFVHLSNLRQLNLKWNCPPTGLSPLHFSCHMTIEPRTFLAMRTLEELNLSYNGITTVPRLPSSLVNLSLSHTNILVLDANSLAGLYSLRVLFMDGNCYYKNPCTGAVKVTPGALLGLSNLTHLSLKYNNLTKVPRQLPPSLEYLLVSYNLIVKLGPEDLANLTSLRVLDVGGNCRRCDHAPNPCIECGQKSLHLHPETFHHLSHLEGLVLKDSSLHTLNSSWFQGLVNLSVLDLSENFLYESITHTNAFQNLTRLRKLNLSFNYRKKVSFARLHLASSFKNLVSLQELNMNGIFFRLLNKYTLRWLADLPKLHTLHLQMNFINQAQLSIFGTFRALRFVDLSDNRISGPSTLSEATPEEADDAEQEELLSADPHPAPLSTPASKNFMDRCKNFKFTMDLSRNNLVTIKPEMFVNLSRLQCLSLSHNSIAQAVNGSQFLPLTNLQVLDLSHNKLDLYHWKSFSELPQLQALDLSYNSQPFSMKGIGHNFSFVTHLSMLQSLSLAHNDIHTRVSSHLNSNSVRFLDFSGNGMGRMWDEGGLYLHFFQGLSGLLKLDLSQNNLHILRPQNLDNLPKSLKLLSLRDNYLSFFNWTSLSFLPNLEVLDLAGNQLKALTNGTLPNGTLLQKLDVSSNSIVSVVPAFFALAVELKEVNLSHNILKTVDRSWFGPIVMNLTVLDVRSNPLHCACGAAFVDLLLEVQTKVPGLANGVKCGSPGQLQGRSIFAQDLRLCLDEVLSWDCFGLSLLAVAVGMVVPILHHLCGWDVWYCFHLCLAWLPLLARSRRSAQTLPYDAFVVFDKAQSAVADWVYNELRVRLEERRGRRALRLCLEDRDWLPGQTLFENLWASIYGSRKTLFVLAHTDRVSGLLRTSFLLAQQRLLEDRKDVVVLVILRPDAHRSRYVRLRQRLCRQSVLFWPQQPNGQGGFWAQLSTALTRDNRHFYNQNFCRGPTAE
Description: FIGS. 1A and B are bar charts showing the effect of peptides derived from A46 on CpG-induced MIP-2 production murine RAW264.7 cells. Cells were seeded in 96 well plates (1.5×10^5 cells/nil) at least 24 hours before treatment. A46 peptides were added to the cells at a concentration of 5 or 20 μM 1 hour before stimulating with 1 μg/ml CpG. Supernatants were collected 24 hours after stimulation and assayed for MIP2 by ELISA. No peptides were added into the control wells (black bars). (A) peptides A461-A467 (SEQ ID NO. 17 to 23). (B) peptides A468-A4614 (SEQ ID NO. 24 to 30) (excluding A4612 SEQ ID NO. 28). Data is representative of at least two experiments each performed in triplicate and is expressed as mean±s.d;
Cytokine and chemokine production from cells or mouse serum was measured by ELISA using Duoset kits from R&D systems, according to the manufacturer's instructions.
These peptides were initially screened for effects on TLR-induced gene induction in vitro using the murine macrophage cell line RAW264.7. Unmethylated CpG dinucleotides of bacterial DNA sequences are detected by TLR9, which leads to production of pro-inflammatory cytokines and chemokines, including TNFα via a MyD88-dependent pathway (Latz et al, 2004). […] The effect of the peptides on two TLR9-induced cytokines, namely TNFα and MIP-2, was measured by ELISA. […]

[2] = target: T2, TLR2 (Mus musculus, UniProt Q9QUN7); experiment: TLR2 response in murine cells; type: cell-based
T2 construct: endogenous in cells

[3] = target: T3, TLR7 (Mus musculus, UniProt P58681); experiment: murine TLR7 response; type: cell-based
T3 sequence (P58681 27-1050): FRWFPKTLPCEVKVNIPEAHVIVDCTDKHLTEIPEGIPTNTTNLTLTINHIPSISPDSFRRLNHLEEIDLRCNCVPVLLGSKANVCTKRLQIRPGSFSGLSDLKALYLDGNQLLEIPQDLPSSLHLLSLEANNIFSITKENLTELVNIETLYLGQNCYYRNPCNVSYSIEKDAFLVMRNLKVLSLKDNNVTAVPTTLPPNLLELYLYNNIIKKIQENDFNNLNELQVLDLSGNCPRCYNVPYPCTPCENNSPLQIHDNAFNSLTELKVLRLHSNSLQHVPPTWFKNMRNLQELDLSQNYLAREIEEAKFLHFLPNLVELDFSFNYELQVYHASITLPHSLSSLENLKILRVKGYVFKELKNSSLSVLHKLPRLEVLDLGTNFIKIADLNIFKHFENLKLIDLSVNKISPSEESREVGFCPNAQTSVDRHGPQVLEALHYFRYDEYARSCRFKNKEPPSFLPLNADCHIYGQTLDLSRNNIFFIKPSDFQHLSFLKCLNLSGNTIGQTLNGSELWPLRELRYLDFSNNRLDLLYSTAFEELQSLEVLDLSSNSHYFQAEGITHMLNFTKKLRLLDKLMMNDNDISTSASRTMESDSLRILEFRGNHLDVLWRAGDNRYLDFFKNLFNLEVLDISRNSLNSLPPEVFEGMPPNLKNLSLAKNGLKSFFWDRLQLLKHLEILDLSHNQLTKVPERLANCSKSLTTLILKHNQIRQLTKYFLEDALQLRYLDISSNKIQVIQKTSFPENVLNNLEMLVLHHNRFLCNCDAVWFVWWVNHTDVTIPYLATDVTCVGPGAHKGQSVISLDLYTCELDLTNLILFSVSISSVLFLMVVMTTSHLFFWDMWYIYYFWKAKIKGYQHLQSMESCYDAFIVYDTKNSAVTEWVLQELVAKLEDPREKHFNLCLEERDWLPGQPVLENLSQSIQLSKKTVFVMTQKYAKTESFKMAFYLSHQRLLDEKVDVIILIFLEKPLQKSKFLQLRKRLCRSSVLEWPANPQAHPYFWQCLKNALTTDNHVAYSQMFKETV

T2 sequence (Q9QUN7 25-784): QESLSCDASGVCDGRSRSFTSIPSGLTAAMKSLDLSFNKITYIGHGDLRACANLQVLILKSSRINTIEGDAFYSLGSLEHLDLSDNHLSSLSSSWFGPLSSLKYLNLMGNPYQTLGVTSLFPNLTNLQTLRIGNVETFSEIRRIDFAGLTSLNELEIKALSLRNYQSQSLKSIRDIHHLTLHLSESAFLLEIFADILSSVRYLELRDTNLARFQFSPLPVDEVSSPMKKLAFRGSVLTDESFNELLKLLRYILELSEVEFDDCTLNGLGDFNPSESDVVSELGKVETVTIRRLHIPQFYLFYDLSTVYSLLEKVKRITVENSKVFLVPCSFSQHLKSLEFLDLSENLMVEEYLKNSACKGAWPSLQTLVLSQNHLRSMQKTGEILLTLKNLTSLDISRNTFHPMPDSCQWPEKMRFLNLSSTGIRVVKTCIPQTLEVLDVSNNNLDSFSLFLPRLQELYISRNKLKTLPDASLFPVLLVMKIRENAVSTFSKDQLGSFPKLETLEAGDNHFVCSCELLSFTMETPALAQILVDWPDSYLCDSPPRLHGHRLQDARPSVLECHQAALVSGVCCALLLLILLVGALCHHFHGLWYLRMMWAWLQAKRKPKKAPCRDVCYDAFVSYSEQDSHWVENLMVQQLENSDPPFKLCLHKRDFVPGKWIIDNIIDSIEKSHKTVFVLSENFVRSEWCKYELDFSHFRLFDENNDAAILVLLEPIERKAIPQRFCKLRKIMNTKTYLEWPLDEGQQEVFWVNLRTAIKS

Sequence: KYSFKLILAEYRRRRRRRRR [Peptide A464]
- inhibition of CpG-induced MIP-2 secretion [1]: little or no effect
- effect on TLR2 in murine cells [2]: unaffected
- inhibition of murine TLR7 [3]: insensitive
